From article PMC12839305 (Biomolecules, 2025)

T1: LRP1 cluster II (CL II, 786–1165 aa) (human, UniProt Q07954 786-1165)
T1 construct: not shown: FLAG or 6 × HIS (same vector as Gn)
T1 sequence: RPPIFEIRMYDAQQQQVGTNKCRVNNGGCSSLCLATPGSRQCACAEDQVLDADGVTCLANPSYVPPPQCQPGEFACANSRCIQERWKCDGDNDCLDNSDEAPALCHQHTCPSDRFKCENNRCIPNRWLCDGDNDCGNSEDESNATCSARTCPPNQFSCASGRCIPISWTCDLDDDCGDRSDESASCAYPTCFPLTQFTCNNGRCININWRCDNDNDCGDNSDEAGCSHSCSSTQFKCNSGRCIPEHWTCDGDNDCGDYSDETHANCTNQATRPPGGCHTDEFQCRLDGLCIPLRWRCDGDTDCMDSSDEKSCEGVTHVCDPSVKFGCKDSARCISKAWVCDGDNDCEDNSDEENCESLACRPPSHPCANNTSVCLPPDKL

B1: RVFV glycoprotein Gn head domain (154–469 aa) (domain or fragment)
chain: EDPHLRNRPGKGHNYIDGMTQEDATCKPVTYAGACSSFDVLLEKGKFPLFQSYAHHRTLLEAVHDTIIAKADPPSCDLLSAHGNPCMKEKLVMKTHCPNDYQSAHHLNNDGKMASVKCPPKYELTEDCNFCRQMTGASLKKGSYPLQDLFCQSSEDDGSKLKTKMKGVCEVGVQALKKCDGQLSTAHEVVPFAVFKNSKKVYLDKLDLKTEENLLPDSFVCFEHKGQYKGTMDSGQTKRELKSFDISQCPKIGGHGSKKCTGDAAFCSAYECTAQYANAYCSHANGSGIVQIQVSGVWKKPLCVGYERVVVKRELS

Key:
Conditions in all cases: both partners purified
[1] = biological target: B1; experiment: BLI; […]; 300 s association, 300 s dissociation; […], global 1:1 model; Octet RED96
[2] = biological target: T1, LRP1 cluster II (CL II, 786–1165 aa); experiment: as above
[3] = biological target: T2, LRP1 cluster IV (CL IV, 3332–3779 aa) (human, UniProt Q07954 3332-3779); experiment: as above
[4] = biological target: T1, LRP1 cluster II (CL II, 786–1165 aa); experiment: BLI
[5] = biological target: T2, LRP1 cluster IV (CL IV, 3332–3779 aa); experiment: BLI

T2 sequence (Q07954 3332-3779): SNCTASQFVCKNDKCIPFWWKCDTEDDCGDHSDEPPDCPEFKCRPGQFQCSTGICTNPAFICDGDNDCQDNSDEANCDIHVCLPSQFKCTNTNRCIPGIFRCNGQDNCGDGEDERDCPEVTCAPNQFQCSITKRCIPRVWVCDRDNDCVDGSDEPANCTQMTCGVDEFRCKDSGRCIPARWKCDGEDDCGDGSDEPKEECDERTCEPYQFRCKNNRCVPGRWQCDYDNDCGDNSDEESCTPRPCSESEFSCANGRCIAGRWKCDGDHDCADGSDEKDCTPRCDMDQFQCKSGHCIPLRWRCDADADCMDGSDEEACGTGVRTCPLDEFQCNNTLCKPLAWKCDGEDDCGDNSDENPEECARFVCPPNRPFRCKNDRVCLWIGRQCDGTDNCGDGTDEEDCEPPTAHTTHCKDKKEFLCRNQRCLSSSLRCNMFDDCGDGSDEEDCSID

Binder	Kd [1]	Kd [2]	Kd [3]	Kd [4]	Kd [5]
LRP1 CL IV-B, repeats A25–A28 (3492–3649 aa) (domain or fragment) not shown	36 nM	–	–	–	–
LRP1 CL IV-A, repeats A21–A24 (3332–3491 aa) (domain or fragment) not shown	72 nM	–	–	–	–
B1	–	89 nM	56 nM	220 nM	120 nM
